Source: patent US20240101716A1

Molecular target: PD-L1 (blocking assay of Example 11) (UniProt Q9NZQ7)
Sequence (Q9NZQ7 19-239 limits assumed): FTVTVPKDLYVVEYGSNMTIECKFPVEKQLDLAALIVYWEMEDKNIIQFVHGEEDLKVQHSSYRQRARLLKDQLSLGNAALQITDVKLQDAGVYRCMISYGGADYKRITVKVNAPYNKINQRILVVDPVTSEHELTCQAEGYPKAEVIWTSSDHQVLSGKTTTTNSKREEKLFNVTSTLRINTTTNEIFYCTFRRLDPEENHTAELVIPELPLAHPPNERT

EC50 printed for a flat curve: luminescence stays at the baseline of about 50000 RLU up to Log10 about 2.2 nM (no blockade), PD-1/PD-L1 Blockade Assay [pM] | EC50, luminescence (RLU) in the PD-1/PD-L1 Blockade Assay [nM] | Substance
39.5 | – | Human IgG1 (antibody)
– | 0.318 | Tecentriq (antibody)
